Laboratory results as given in the supplement of paper PMC10065799, “High-throughput profiling of sequence recognition by tyrosine kinases and SH2 domains using bacterial peptide display” (eLife, 2023).

test system: AncSZ; assay: phosphorylation enrichment, bacterial display (enrichment ratio); higher = better substrate or ligand; peptides without Tyr show the background
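Further: 11-residue human phosphosite peptides and single-mutation variants displayed on the E. coli surface, counted by deep sequencing, each peptide's frequency after selection divided by its frequency in the unselected input library; frequency after pTyr selection over input frequency; kinase dosed for 20-30% of maximal phosphorylation in three min.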

Row | Sequence | phosphorylation enrichment
1 | PAIFTYDEFKK [COL8A2_Y648_T645I_YF] | 1.47
2 | PLTRSYIREKV [CYP2C8_Y243_A238P] | 0.582
3 | TLMNAYSSCSH [KIF11_Y231_R234C] | 0.702
4 | FLTQHHDAKPQ [ANG_Y38_Y38H] | 0.497
5 | GAVDTYCRHNY [HLA-DRB1_Y107_A102G] | 0.724
6 | EELLHYAIVTP [POC5_Y37] | 1.48
7 | KLLPEYPGILS [DHFR2_Y163_V166I] | 0.772
8 | EVEPTYVVLYD [ERCC4_Y577_R576T] | 1.76
9 | ETEMLYGSARR [PRC1_Y464_P468R] | 0.886
10 | EFISEFCGEII [EZH2_Y641_Y641F] | 1.52
11 | MSLPGYKLVTG [GJA1_Y286_P283L] | 0.536
12 | NKVKFYIPFMN [NCR1_Y84_D87Y_YF] | 0.897
13 | KSSDVYVSYDY [SORL1_Y136] | 1.16
14 | LSALDYKIFYY [WDPCP_Y210] | 1.18
15 | ACCLLYRGDVV [TUBA4A_Y319] | 0.947
16 | SSREGYVRHHN [FAM83B_Y433_S435R] | 0.482
17 | MHLRQYKLLGG [GNAS_Y391_E392K] | 0.51

Row | Sequence | phosphorylation enrichment
18 | SVMAEYGLYAA [VSX2_Y219_G223A] | 0.997
19 | LTTPTFGDLNH [TUBB_Y222_Y222F] | 0.729
20 | PMQLPYDSTWE [PDGFRB_Y589] | 0.975
21 | IEKLTYIDKWF [CPS1_Y872] | 0.896
22 | RALRHYFKLNI [ETV6_Y401_YF] | 0.725
23 | VFAANYFKLLG [ROR2_Y645_D644N_YF] | 0.872
24 | MAQDIYRASYY [ALK_Y1278_R1275Q] | 0.662
25 | MEFLPYGSLRD [JAK2_Y934_YF] | 0.857
26 | SEDSEYFRAFE [CASQ2_Y178_K180R_YF] | 1.99
27 | RVGNMYMRGLS [ABCG8_Y209_V210M] | 0.672
28 | TSNQEYLDLSM [FGFR1_Y766] | 1.14
29 | FRKNTYNVKST [SYNE2_Y575_I574T_YF] | 0.466
30 | VKPENYRRLDI [VHL_Y175] | 0.473
31 | KLASTYREAAT [DEAF1_Y483_H479L] | 0.353
32 | IRTDAYVPAMT [RPE65_Y89_R91P] | 0.516
33 | GLIPAYHRVIM [NMNAT1_Y64] | 0.881

molecular target: EPHB1 (UniProt P54762); assay: as above
Sequence (P54762 whole entry, looked up): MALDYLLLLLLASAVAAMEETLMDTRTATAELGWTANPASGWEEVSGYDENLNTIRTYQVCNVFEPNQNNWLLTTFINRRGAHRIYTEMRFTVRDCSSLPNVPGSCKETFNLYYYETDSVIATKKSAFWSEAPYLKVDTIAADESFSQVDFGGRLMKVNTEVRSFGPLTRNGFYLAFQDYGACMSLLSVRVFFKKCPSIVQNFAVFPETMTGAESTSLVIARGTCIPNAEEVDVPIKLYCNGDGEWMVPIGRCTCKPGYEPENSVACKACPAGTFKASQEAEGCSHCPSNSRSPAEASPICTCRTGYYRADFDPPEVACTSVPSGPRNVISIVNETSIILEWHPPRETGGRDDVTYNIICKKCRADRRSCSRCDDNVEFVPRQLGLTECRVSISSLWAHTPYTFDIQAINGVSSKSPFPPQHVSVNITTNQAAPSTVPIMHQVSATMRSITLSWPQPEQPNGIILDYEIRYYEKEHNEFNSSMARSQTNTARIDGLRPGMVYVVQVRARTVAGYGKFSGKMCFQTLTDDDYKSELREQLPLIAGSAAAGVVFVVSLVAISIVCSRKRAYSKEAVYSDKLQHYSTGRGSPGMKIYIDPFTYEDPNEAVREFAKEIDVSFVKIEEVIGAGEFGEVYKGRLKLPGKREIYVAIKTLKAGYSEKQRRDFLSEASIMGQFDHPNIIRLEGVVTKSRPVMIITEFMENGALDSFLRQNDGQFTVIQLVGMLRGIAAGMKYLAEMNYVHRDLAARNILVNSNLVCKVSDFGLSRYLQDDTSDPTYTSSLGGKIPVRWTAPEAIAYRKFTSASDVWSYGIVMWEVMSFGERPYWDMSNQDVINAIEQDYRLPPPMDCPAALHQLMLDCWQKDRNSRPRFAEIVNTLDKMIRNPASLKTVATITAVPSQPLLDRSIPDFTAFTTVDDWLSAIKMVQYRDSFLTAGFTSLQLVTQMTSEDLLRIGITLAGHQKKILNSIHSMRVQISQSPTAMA

Row | Sequence | phosphorylation enrichment
34 | PAIFTYDEFKK [COL8A2_Y648_T645I_YF] | 0.398
35 | PLTRSYIREKV [CYP2C8_Y243_A238P] | 0.276
36 | TLMNAYSSCSH [KIF11_Y231_R234C] | 0.465
37 | FLTQHHDAKPQ [ANG_Y38_Y38H] | 0.33
38 | GAVDTYCRHNY [HLA-DRB1_Y107_A102G] | 0.475
39 | EELLHYAIVTP [POC5_Y37] | 3.27
40 | KLLPEYPGILS [DHFR2_Y163_V166I] | 0.488
41 | EVEPTYVVLYD [ERCC4_Y577_R576T] | 10.9
42 | ETEMLYGSARR [PRC1_Y464_P468R] | 0.416
43 | EFISEFCGEII [EZH2_Y641_Y641F] | 0.566
44 | MSLPGYKLVTG [GJA1_Y286_P283L] | 0.374
45 | NKVKFYIPFMN [NCR1_Y84_D87Y_YF] | 0.551
46 | KSSDVYVSYDY [SORL1_Y136] | 1.38
47 | LSALDYKIFYY [WDPCP_Y210] | 0.634
48 | ACCLLYRGDVV [TUBA4A_Y319] | 0.507
49 | SSREGYVRHHN [FAM83B_Y433_S435R] | 0.309
50 | MHLRQYKLLGG [GNAS_Y391_E392K] | 0.534

Row | Sequence | phosphorylation enrichment
51 | SVMAEYGLYAA [VSX2_Y219_G223A] | 3.29
52 | LTTPTFGDLNH [TUBB_Y222_Y222F] | 0.407
53 | PMQLPYDSTWE [PDGFRB_Y589] | 0.533
54 | IEKLTYIDKWF [CPS1_Y872] | 0.515
55 | RALRHYFKLNI [ETV6_Y401_YF] | 0.342
56 | VFAANYFKLLG [ROR2_Y645_D644N_YF] | 0.645
57 | MAQDIYRASYY [ALK_Y1278_R1275Q] | 0.576
58 | MEFLPYGSLRD [JAK2_Y934_YF] | 0.571
59 | SEDSEYFRAFE [CASQ2_Y178_K180R_YF] | 0.633
60 | RVGNMYMRGLS [ABCG8_Y209_V210M] | 0.615
61 | TSNQEYLDLSM [FGFR1_Y766] | 0.8
62 | FRKNTYNVKST [SYNE2_Y575_I574T_YF] | 0.425
63 | VKPENYRRLDI [VHL_Y175] | 0.58
64 | KLASTYREAAT [DEAF1_Y483_H479L] | 0.343
65 | IRTDAYVPAMT [RPE65_Y89_R91P] | 0.33
66 | GLIPAYHRVIM [NMNAT1_Y64] | 0.571

molecular target: EPHB2 (UniProt P29323); assay: as above
Sequence (P29323 whole entry, looked up): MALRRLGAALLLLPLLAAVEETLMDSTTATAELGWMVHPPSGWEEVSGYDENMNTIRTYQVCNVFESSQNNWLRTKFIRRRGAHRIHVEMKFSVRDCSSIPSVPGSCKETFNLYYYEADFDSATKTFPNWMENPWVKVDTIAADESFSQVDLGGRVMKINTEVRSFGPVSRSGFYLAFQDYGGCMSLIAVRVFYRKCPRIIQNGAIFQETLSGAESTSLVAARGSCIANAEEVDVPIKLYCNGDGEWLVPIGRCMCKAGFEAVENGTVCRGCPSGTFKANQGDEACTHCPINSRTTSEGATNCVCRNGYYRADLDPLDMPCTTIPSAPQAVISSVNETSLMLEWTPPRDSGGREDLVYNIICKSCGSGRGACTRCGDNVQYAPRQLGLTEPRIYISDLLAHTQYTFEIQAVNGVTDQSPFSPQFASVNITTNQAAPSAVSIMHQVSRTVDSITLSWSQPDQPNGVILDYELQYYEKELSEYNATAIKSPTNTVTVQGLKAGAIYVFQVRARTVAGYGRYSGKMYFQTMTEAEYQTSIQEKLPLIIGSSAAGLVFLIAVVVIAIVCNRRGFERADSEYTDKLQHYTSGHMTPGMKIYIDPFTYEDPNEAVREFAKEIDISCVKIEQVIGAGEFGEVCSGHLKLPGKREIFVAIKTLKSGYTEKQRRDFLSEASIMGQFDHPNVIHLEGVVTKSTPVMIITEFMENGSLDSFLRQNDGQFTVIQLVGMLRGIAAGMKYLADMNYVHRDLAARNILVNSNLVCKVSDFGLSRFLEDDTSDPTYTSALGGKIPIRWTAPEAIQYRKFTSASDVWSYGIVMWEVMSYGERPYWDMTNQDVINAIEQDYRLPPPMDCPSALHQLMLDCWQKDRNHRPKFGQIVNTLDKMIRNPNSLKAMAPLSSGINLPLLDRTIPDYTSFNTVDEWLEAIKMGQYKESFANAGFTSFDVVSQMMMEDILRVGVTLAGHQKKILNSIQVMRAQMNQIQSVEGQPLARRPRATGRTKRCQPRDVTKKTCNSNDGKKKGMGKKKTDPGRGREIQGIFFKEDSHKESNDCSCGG

Row | Sequence | phosphorylation enrichment
67 | PAIFTYDEFKK [COL8A2_Y648_T645I_YF] | 0.359
68 | PLTRSYIREKV [CYP2C8_Y243_A238P] | 0.484
69 | TLMNAYSSCSH [KIF11_Y231_R234C] | 0.566
70 | FLTQHHDAKPQ [ANG_Y38_Y38H] | 0.381
71 | GAVDTYCRHNY [HLA-DRB1_Y107_A102G] | 0.418
72 | EELLHYAIVTP [POC5_Y37] | 1.49
73 | KLLPEYPGILS [DHFR2_Y163_V166I] | 0.458
74 | EVEPTYVVLYD [ERCC4_Y577_R576T] | 13.7
75 | ETEMLYGSARR [PRC1_Y464_P468R] | 0.451
76 | EFISEFCGEII [EZH2_Y641_Y641F] | 0.719
77 | MSLPGYKLVTG [GJA1_Y286_P283L] | 0.393
78 | NKVKFYIPFMN [NCR1_Y84_D87Y_YF] | 0.528
79 | KSSDVYVSYDY [SORL1_Y136] | 1.92
80 | LSALDYKIFYY [WDPCP_Y210] | 0.602
81 | ACCLLYRGDVV [TUBA4A_Y319] | 0.557
82 | SSREGYVRHHN [FAM83B_Y433_S435R] | 0.445
83 | MHLRQYKLLGG [GNAS_Y391_E392K] | 0.44

Row | Sequence | phosphorylation enrichment
84 | SVMAEYGLYAA [VSX2_Y219_G223A] | 8.04
85 | LTTPTFGDLNH [TUBB_Y222_Y222F] | 0.384
86 | PMQLPYDSTWE [PDGFRB_Y589] | 0.399
87 | IEKLTYIDKWF [CPS1_Y872] | 0.513
88 | RALRHYFKLNI [ETV6_Y401_YF] | 0.358
89 | VFAANYFKLLG [ROR2_Y645_D644N_YF] | 0.648
90 | MAQDIYRASYY [ALK_Y1278_R1275Q] | 0.53
91 | MEFLPYGSLRD [JAK2_Y934_YF] | 0.451
92 | SEDSEYFRAFE [CASQ2_Y178_K180R_YF] | 0.591
93 | RVGNMYMRGLS [ABCG8_Y209_V210M] | 0.559
94 | TSNQEYLDLSM [FGFR1_Y766] | 0.626
95 | FRKNTYNVKST [SYNE2_Y575_I574T_YF] | 0.333
96 | VKPENYRRLDI [VHL_Y175] | 0.324
97 | KLASTYREAAT [DEAF1_Y483_H479L] | 0.337
98 | IRTDAYVPAMT [RPE65_Y89_R91P] | 0.336
99 | GLIPAYHRVIM [NMNAT1_Y64] | 0.504

molecular target: FGFR1 (UniProt P11362); assay: as above
Sequence (P11362 whole entry, looked up): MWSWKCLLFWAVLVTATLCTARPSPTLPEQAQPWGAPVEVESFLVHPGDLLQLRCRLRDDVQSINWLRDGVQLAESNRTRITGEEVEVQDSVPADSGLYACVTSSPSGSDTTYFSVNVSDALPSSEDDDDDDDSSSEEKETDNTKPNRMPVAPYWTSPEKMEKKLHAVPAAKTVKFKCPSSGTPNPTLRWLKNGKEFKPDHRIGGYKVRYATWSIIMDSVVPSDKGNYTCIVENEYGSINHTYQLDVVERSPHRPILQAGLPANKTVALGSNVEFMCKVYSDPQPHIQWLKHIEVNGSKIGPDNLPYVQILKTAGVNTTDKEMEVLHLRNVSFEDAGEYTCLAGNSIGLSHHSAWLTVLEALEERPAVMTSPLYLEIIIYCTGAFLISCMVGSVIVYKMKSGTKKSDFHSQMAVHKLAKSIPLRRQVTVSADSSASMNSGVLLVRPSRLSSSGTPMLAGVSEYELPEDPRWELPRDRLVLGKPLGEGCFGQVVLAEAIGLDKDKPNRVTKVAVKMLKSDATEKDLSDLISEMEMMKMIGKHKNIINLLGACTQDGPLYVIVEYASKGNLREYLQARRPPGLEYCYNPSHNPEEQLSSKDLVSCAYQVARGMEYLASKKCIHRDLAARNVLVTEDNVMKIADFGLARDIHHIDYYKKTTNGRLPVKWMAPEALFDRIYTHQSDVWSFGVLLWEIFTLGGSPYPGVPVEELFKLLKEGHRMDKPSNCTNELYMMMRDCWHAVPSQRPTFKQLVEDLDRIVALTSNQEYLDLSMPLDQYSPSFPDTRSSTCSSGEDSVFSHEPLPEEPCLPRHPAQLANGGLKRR

Row | Sequence | phosphorylation enrichment
100 | PAIFTYDEFKK [COL8A2_Y648_T645I_YF] | 0.374
101 | PLTRSYIREKV [CYP2C8_Y243_A238P] | 0.341
102 | TLMNAYSSCSH [KIF11_Y231_R234C] | 0.436
103 | FLTQHHDAKPQ [ANG_Y38_Y38H] | 0.447
104 | GAVDTYCRHNY [HLA-DRB1_Y107_A102G] | 0.531
105 | EELLHYAIVTP [POC5_Y37] | 1.33
106 | KLLPEYPGILS [DHFR2_Y163_V166I] | 0.467
107 | EVEPTYVVLYD [ERCC4_Y577_R576T] | 5.87
108 | ETEMLYGSARR [PRC1_Y464_P468R] | 0.429
109 | EFISEFCGEII [EZH2_Y641_Y641F] | 0.574
110 | MSLPGYKLVTG [GJA1_Y286_P283L] | 0.495
111 | NKVKFYIPFMN [NCR1_Y84_D87Y_YF] | 0.431
112 | KSSDVYVSYDY [SORL1_Y136] | 4.12
113 | LSALDYKIFYY [WDPCP_Y210] | 0.816
114 | ACCLLYRGDVV [TUBA4A_Y319] | 3.27
115 | SSREGYVRHHN [FAM83B_Y433_S435R] | 0.416
116 | MHLRQYKLLGG [GNAS_Y391_E392K] | 0.478

Row | Sequence | phosphorylation enrichment
117 | SVMAEYGLYAA [VSX2_Y219_G223A] | 0.654
118 | LTTPTFGDLNH [TUBB_Y222_Y222F] | 0.554
119 | PMQLPYDSTWE [PDGFRB_Y589] | 0.438
120 | IEKLTYIDKWF [CPS1_Y872] | 0.638
121 | RALRHYFKLNI [ETV6_Y401_YF] | 0.485
122 | VFAANYFKLLG [ROR2_Y645_D644N_YF] | 2.44
123 | MAQDIYRASYY [ALK_Y1278_R1275Q] | 0.786
124 | MEFLPYGSLRD [JAK2_Y934_YF] | 0.441
125 | SEDSEYFRAFE [CASQ2_Y178_K180R_YF] | 0.586
126 | RVGNMYMRGLS [ABCG8_Y209_V210M] | 0.704
127 | TSNQEYLDLSM [FGFR1_Y766] | 1.53
128 | FRKNTYNVKST [SYNE2_Y575_I574T_YF] | 0.352
129 | VKPENYRRLDI [VHL_Y175] | 0.615
130 | KLASTYREAAT [DEAF1_Y483_H479L] | 0.352
131 | IRTDAYVPAMT [RPE65_Y89_R91P] | 0.399
132 | GLIPAYHRVIM [NMNAT1_Y64] | 0.572
